Drawing on article PMC10397247, this text covers interaction score for four molecules.

For experiment [1], the target named is T1, O1.
T1 chain: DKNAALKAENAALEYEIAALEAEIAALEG
The experiment is described as follows: two-hybrid library CCNG1.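 Further: natural log of median RNA to DNA barcode read ratio; higher means stronger binding.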

Experiment [2] deals with T2, O8.
T2 chain: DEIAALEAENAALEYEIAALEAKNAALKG
In words: two-hybrid library CCNG1.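 Further: natural log of median RNA to DNA barcode read ratio; higher means stronger binding.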

Experiment [3] addresses T3, O4.
T3 chain: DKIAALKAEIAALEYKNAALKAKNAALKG
The experiment is described as follows: two-hybrid library CCNG1.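 Further: natural log of median RNA to DNA barcode read ratio; higher means stronger binding.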

The target of experiment [4] is T4, O16.
T4 chain: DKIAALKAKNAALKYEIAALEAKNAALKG
The experiment is described as follows: two-hybrid library CCNG1.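 Further: natural log of median RNA to DNA barcode read ratio; higher means stronger binding.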

Experiment [5] deals with T5, O6.
T5 chain: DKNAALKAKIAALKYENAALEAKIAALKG
In words: two-hybrid library CCNG1.

The target in experiment [6] is T6, O3.
T6 chain: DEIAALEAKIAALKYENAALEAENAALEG
The experiment is described as follows: two-hybrid library CCNG1.

Experiment [7] concerns the target T7, O15.
T7 chain: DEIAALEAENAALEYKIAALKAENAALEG
The experiment is described as follows: two-hybrid library CCNG1.

Experiment [8] deals with T8, O13.
T8 chain: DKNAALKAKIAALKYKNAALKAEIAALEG
The experiment is described as follows: two-hybrid library CCNG1.

Experiment [9] addresses T9, O10.
T9 chain: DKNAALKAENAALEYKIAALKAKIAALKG
The experiment is described as follows: two-hybrid library CCNG1.

Experiment [10] concerns the target T10, O14.
T10 chain: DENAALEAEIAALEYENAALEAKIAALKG
The experiment is described as follows: two-hybrid library CCNG1.

The target of experiment [11] is T11, O7.
T11 chain: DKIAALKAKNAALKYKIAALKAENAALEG
In words: two-hybrid library CCNG1.

Experiment [12] addresses T12, O11.
T12 chain: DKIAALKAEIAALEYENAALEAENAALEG
The experiment is described as follows: two-hybrid library CCNG1.

For experiment [13], the target named is T13, O5.
T13 chain: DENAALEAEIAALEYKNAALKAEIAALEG
The experiment is described as follows: two-hybrid library CCNG1.

Experiment [14] addresses T14, O2.
T14 chain: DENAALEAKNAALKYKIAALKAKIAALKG
In words: two-hybrid library CCNG1.

In experiment [15] the target is T15, O12.
T15 chain: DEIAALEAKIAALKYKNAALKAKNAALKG
The experiment is described as follows: two-hybrid library CCNG1.

In experiment [16] the target is T16, O9.
T16 chain: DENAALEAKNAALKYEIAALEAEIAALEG
The experiment is described as follows: two-hybrid library CCNG1.

The target of experiment [17] is T17, 4H3858-bA.
T17 chain: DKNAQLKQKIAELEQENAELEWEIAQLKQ
The experiment is described as follows: two-hybrid library CCNG1.

Experiment [18] addresses T18, 4H1348-bA.
T18 chain: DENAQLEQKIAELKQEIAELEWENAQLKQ
The experiment is described as follows: two-hybrid library CCNG1.

The target of experiment [19] is T19, 4H850-bA.
T19 chain: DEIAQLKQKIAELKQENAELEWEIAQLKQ
The experiment is described as follows: two-hybrid library CCNG1.

The target in experiment [20] is T20, 4H1373-bA.
T20 chain: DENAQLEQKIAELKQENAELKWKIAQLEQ
In words: two-hybrid library CCNG1.

Experiment [21] has as its target T21, 4H3817-bA.
T21 chain: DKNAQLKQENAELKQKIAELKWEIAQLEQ
In words: two-hybrid library CCNG1.

Experiment [22] concerns the target T22, 4H1338-bA.
T22 chain: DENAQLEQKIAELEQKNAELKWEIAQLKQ
In words: two-hybrid library CCNG1.

Experiment [23] deals with T23, 4H1544-bA.
T23 chain: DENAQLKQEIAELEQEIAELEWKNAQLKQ
In words: two-hybrid library CCNG1.

Experiment [24] deals with T24, 4H570-bA.
T24 chain: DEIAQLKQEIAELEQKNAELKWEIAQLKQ
In words: two-hybrid library CCNG1.

The target in experiment [25] is T25, 4H1710-bA.
T25 chain: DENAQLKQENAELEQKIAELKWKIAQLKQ
The experiment is described as follows: two-hybrid library CCNG1.

In experiment [26] the target is T26, 4H3628-bA.
T26 chain: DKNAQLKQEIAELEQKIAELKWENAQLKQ
In words: two-hybrid library CCNG1.

The target in experiment [27] is T27, 4H1985-bA.
T27 chain: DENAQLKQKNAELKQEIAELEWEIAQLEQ
The experiment is described as follows: two-hybrid library CCNG1.

In experiment [28] the target is T28, 4H1449-bA.
T28 chain: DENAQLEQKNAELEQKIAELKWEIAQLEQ
The experiment is described as follows: two-hybrid library CCNG1.

For experiment [29], the target named is T29, 4H3613-bA.
T29 chain: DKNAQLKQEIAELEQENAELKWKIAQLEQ
In words: two-hybrid library CCNG1.

Experiment [30] has as its target T30, 4H1899-bA.
T30 chain: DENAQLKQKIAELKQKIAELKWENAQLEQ
In words: two-hybrid library CCNG1.

Experiment [31] has as its target T31, 4H3974-bA.
T31 chain: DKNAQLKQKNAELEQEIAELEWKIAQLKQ
In words: two-hybrid library CCNG1.

Experiment [32] concerns the target T32, 4H1405-AA.
T32 chain: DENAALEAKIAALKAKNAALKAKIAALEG
The experiment is described as follows: two-hybrid library CCmax. The note with it: mean of both orientations.

For experiment [33], the target named is T33, 4H2211-AA.
T33 chain: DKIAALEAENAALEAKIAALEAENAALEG
The experiment is described as follows: two-hybrid library CCmax. The conditions noted are these: mean of both orientations.

The target in experiment [34] is T34, 4H3625-AA.
T34 chain: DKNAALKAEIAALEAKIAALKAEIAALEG
The experiment is described as follows: two-hybrid library CCmax. The note with it: mean of both orientations.

The target in experiment [35] is T35, 4H2513-AA.
T35 chain: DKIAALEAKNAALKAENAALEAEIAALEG
The experiment is described as follows: two-hybrid library CCmax. The note with it: mean of both orientations.

In experiment [36] the target is T36, 4H55-AA.
T36 chain: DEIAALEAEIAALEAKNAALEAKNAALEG
In words: two-hybrid library CCmax. The conditions noted are these: mean of both orientations.

Experiment [37] deals with T37, 4H3922-AA.
T37 chain: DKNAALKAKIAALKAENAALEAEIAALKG
The experiment is described as follows: two-hybrid library CCmax. The conditions noted are these: mean of both orientations.

Experiment [38] concerns the target T38, 4H1198-AA.
T38 chain: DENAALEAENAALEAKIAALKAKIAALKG
The experiment is described as follows: two-hybrid library CCmax. The note with it: mean of both orientations.

Experiment [39] addresses T39, 4H629-AA.
T39 chain: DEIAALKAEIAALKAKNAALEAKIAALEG
The experiment is described as follows: two-hybrid library CCmax.

Experiment [40] has as its target T40, 4H327-AA.
T40 chain: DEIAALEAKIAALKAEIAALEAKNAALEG
In words: two-hybrid library CCmax. The conditions noted are these: mean of both orientations.

For experiment [41], the target named is T41, 4H481-AA.
T41 chain: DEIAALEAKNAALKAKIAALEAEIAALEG
The experiment is described as follows: two-hybrid library CCmax. The note with it: mean of both orientations.

The target of experiment [42] is T42, 4H1082-AA.
T42 chain: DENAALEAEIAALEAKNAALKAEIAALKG
The experiment is described as follows: two-hybrid library CCmax.

Experiment [43] has as its target T43, 4H2726-AA.
T43 chain: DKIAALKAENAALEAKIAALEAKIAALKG
In words: two-hybrid library CCmax. The conditions noted are these: mean of both orientations.

Experiment [44] addresses T44, 4H2935-AA.
T44 chain: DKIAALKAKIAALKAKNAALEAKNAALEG
The experiment is described as follows: two-hybrid library CCmax. The conditions noted are these: mean of both orientations.

The target in experiment [45] is T45, 4H2608-AA.
T45 chain: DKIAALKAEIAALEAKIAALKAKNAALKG
In words: two-hybrid library CCmax. The note with it: mean of both orientations.

The target of experiment [46] is T46, 4H1350-AA.
T46 chain: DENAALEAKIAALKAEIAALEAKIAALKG
The experiment is described as follows: two-hybrid library CCmax. The note with it: mean of both orientations.

Experiment [47] addresses T47, 4H2536-AA.
T47 chain: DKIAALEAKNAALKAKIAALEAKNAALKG
In words: two-hybrid library CCmax. The conditions noted are these: mean of both orientations.

Experiment [48] addresses T48, 4H1103-AA.
T48 chain: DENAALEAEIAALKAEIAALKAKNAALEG
In words: two-hybrid library CCmax. The note with it: mean of both orientations.

Experiment [49] deals with T49, 4H3605-AA.
T49 chain: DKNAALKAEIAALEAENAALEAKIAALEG
The experiment is described as follows: two-hybrid library CCmax. The conditions noted are these: mean of both orientations.

For experiment [50], the target named is T50, 4H2238-AA.
T50 chain: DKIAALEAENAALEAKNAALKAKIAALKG
The experiment is described as follows: two-hybrid library CCmax. The note with it: mean of both orientations.

Experiment [51] addresses T51, 4H662-AA.
T51 chain: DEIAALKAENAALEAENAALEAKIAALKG
In words: two-hybrid library CCmax. The note with it: mean of both orientations.

In experiment [52] the target is T52, 4H3664-AA.
T52 chain: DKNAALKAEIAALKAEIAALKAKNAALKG
The experiment is described as follows: two-hybrid library CCmax. The note with it: mean of both orientations.

In experiment [53] the target is T53, 4H2614-AA.
T53 chain: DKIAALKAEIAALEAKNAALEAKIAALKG
In words: two-hybrid library CCmax. The note with it: mean of both orientations.

In experiment [54] the target is T54, 4H4033-AA.
T54 chain: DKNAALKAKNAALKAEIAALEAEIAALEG
In words: two-hybrid library CCmax. The note with it: mean of both orientations.

The target of experiment [55] is T55, 4H369-AA.
T55 chain: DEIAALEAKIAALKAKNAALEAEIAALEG
In words: two-hybrid library CCmax. The conditions noted are these: mean of both orientations.

The target in experiment [56] is T56, 4H3974-bH.
T56 chain: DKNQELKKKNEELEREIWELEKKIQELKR
The experiment is described as follows: two-hybrid library CCNG1.

The target of experiment [57] is T57, 4H3858-bH.
T57 chain: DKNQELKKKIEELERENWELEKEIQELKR
In words: two-hybrid library CCNG1.

For experiment [58], the target named is T58, 4H850-bH.
T58 chain: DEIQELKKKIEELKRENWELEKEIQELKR
The experiment is described as follows: two-hybrid library CCNG1.

In experiment [59] the target is T59, 4H570-bH.
T59 chain: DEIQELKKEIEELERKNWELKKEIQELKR
The experiment is described as follows: two-hybrid library CCNG1.

Consider DKNAALKAENAALEYEIAALEAEIAALEG [O1], for which the interaction score is -2.12 in experiment [1]; -2.46 in experiment [2]; -2.08 in experiment [3]; -2.54 in experiment [4]; -2.86 in experiment [5]; -2.08 in experiment [6]. The interaction score is -2.03 in [7]; -1.26 in experiment [8]; -1.12 in experiment [9]; -2.4 in experiment [10]; -2.15 in experiment [11]; -2.38 in experiment [12]. For the same molecule, the interaction score in experiment [13] was -2.09; in experiment [14], 1.45; in [15] it was -2.35; in experiment [16] it was -1.83.

On to DENAQLEQKIAELEQKNAELKWEIAQLKQ [4H1338-bA], for which the interaction score is 1.87 in experiment [17]; -0.532 in [18]; 1.4 in [19]; -0.825 in experiment [20]; -0.561 in [21]; -0.0383 in [22]. The interaction score was -0.0537 in experiment [23]; -0.499 in experiment [24]; -1.12 in [25]; -0.607 in experiment [26]; 0.203 in experiment [27]; -0.906 in experiment [28]. Also, the interaction score in experiment [29] was 0.511; in experiment [30], -0.794; in [31] it was 1.12.

As to DENAALEAEIAALEAKNAALKAEIAALKG [4H1082-AA], the interaction score in experiment [32] was -1.13; in [33], -0.726; in experiment [34], -0.987; in experiment [35] it was -0.261; in [36], -1.89; in experiment [37], 2.18. The interaction score in experiment [38] is -0.589; in [39], -0.619; in experiment [40] it was -0.938; in [41], -1.09; in [42], -0.277; in experiment [43] it was -0.0246. The interaction score was -1.5 in [44]; 1.21 in experiment [45]; 0.509 in [46]; -1.58 in [47]; -1.29 in experiment [48]; 1.35 in experiment [49]. Further, the interaction score was -1.2 in experiment [50]; -0.82 in experiment [51]; -1.83 in [52]; 0.814 in experiment [53]; -0.637 in [54]; -0.173 in [55].

Take DKNQELKKKIEELERENWELEKEIQELKR [4H3858-bH]: the interaction score was -0.992 in experiment [1]; -0.677 in [56]; 1.05 in [57]; -0.759 in experiment [58]; 1.32 in experiment [59].
